Values belong to the binder of their own block, whether it stands above or below them. Square brackets hold non-standard residues; d marks the D form. Ends that are not written are not given here. * marks the point of attachment. Benzoyl(4-benzoyl) = O=C(c1ccccc1)c1ccc(C(=O)*)cc1; Bpa = N[C@@H](Cc1ccc(C(=O)c2ccccc2)cc1)C(=O)O; Phe(NO2) = nitro-phenylalanine (NO2-Phe); Desaminotyrosyl = O=C(CCc1ccc(O)cc1)*; Nle = CCCC[C@H](N)C(=O)O
How the values were obtained:
[1] = biological target: T1, hemagglutinin-tagged wild type human type 2 CCK receptor (human, UniProt P32239 1-447); test: radioligand binding
T1 sequence (looked up): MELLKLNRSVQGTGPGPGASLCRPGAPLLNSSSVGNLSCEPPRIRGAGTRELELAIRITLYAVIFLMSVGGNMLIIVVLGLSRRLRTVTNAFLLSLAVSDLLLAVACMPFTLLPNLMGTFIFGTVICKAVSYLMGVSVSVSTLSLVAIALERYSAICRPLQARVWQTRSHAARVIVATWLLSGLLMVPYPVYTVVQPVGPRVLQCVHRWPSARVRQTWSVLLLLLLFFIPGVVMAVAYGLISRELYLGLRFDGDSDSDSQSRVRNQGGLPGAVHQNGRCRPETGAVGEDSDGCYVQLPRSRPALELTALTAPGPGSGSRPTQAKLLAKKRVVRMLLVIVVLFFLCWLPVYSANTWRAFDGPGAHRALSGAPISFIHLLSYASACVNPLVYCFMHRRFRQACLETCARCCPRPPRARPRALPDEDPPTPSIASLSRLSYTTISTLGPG

[2] = biological target: T1, hemagglutinin-tagged wild type human …; test: cell-based or functional assay

IC50 [1]: > 1 µM
Binder: [Desaminotyrosyl]GDY[Nle]GWK(Benzoyl(4-benzoyl))DF (ends and bridges not checked) [(des-amino-Tyr)-Gly-[(Nle28,(BzBz)Lys31)CCK-26-33]]

intracellular calcium responses in CHO-CCK2R cells, EC50 [2]: > 1 µM
Binder: [Desaminotyrosyl]G[Phe(NO2)]Y[Nle]GW[Nle]DF (ends and bridges not checked) [(des-amino-Tyr)-Gly-[(NO2-Phe26,Nle28,Nle31)CCK-26-33]]

The remaining lines, values behind:

Binder: [Desaminotyrosyl]GDY[Nle]G[Bpa][Nle]DF (ends and bridges not checked) [(des-amino-Tyr)-Gly-[(Nle28,Bpa30,Nle31)CCK-26-33]]
IC50 [1]: > 1 µM

Binder: [Desaminotyrosyl]GDY[Nle]GW[Nle][Bpa]F (ends and bridges not checked) [(des-amino-Tyr)-Gly-[(Nle28,Nle31,Bpa32)CCK-26-33]]
intracellular calcium responses in CHO-CCK2R cells, EC50 [2]: > 1 µM | IC50 [1]: > 1 µM

From paper PMC3739435 (Peptides, 2013)
